# Test system: MexT-(His)6 (Pseudomonas poae PMA22)
# Assay: EMSA
# Details: 10 mM MgCl2, 5.4-134.5 ng MexT, 1 nM probe, EMSA: 20 mM Tris-HCl pH 8, 150 mM KCl, 10 mM MgCl2, 10% glycerol, 2 mM beta-mercaptoethanol, 50 ug/mL BSA, 9 uL, 20 min room temperature, 5% PAGE in 0.5x TBE
Substance,binding signal (scale: fold of Pi affinity),binding signal (fold higher affinity than Pa probe)
Pa promoter probe,0.33,
Pi promoter probe,,3

# Reference: PMC11432991
